In the Immune Epitope Database (IEDB) one finds Kd data, which are given here for 8 sequences.

One assay has as its target HLA-B*39:01. The assay is described as follows: IEDB peptide-MHC binding, purified MHC/competitive/fluorescence; filed as Kd, often an IC50 or EC50 that approximates it; ≥ and ≤ were set here for values at or beyond the usual limits of such assays.
A further assay has as its target HLA-B*27:03. Described as above.
In a further assay the target is HLA-A*02:16. The assay is described as above.
In a further assay the target is HLA-A*68:02. The assay is described as above.
A further assay addresses HLA-B*51:01. The assay is described as above.
The target of the next assay is HLA-A*29:02. Described as above.
The next assay deals with HLA-A*02:19. Described as above.
In assay [1] the target is HLA-A*03:01. Described as above.
In another assay the target is HLA-B*57:01. The assay is described as above.
In assay [2] the target is HLA-A*02:01. Described as above.
The target in assay [3] is HLA-A*69:01. Described as above.
In the next assay the target is HLA-A*02:12. The description is as above.
The target in assay [4] is HLA-A*24:03. The description is as above. Particulars: source organism: Rickettsia sibirica 246.
For the next assay, the target named is HLA-B*18:01. The assay is described as above.
Assay [5] concerns the target HLA-A*26:01. Described as above.
A further assay deals with HLA-A*02:03. The description is as above.
The target in a further assay is HLA-B*44:02. Put plainly: IEDB peptide-MHC binding, purified MHC/direct/fluorescence; filed as Kd, often an IC50 or EC50 that approximates it; ≥ and ≤ were set here for values at or beyond the usual limits of such assays. Conditions: source organism: Escherichia coli O157:H7.
The next assay concerns the target HLA-B*08:01. The description is as above. Particulars: source organism: Escherichia coli O157:H7.
The target of assay [6] is HLA-B*46:01. The description is as above. Particulars: source organism: Escherichia coli O157:H7.
The next assay has as its target HLA-B*15:02. The description is as above. Conditions: source organism: Escherichia coli O157:H7.
The target in the next assay is HLA-A*11:01. The description is as above.
Assay [7] addresses HLA-B*15:01. The description is as above.
The target of the next assay is HLA-B*40:01. The description is as above. Conditions: source organism: Escherichia coli O157:H7.
Assay [8] concerns the target HLA-A*03:01. Described as above.
The target in assay [9] is HLA-A*02:01. Described as above.
A further assay deals with HLA-B*07:02. The description is as above.
The target in the next assay is HLA-B*35:01. Described as above. Particulars: source organism: Escherichia coli O157:H7.
Assay [10] deals with HLA-A*69:01. The assay is described as above. Particulars: source organism: Escherichia coli O157:H7.
In another assay the target is HLA-A*01:01. The assay is described as above. Conditions: source organism: Escherichia coli O157:H7.
The target in a further assay is HLA-B*27:05. Described as above. Conditions: source organism: Escherichia coli O157:H7.
In a further assay the target is HLA-B*58:01. Described as above. Particulars: source organism: Escherichia coli O157:H7.
Assay [11] addresses HLA-A*26:01. The description is as above. Particulars: source organism: Escherichia coli O157:H7.
Assay [12] concerns the target HLA-B*46:01. Put plainly: IEDB peptide-MHC binding, purified MHC/competitive/fluorescence; filed as Kd, often an IC50 or EC50 that approximates it; ≥ and ≤ were set here for values at or beyond the usual limits of such assays.
The target in a further assay is HLA-A*30:01. Put plainly: IEDB peptide-MHC binding, purified MHC/direct/fluorescence; filed as Kd, often an IC50 or EC50 that approximates it; ≥ and ≤ were set here for values at or beyond the usual limits of such assays.
For assay [13], the target named is HLA-B*15:01. Put plainly: IEDB peptide-MHC binding, purified MHC/competitive/fluorescence; filed as Kd, often an IC50 or EC50 that approximates it; ≥ and ≤ were set here for values at or beyond the usual limits of such assays. Particulars: source organism: Francisella tularensis subsp. tularensis FSC198.
A further assay addresses HLA-A*31:01. Put plainly: IEDB peptide-MHC binding, purified MHC/direct/fluorescence; filed as Kd, often an IC50 or EC50 that approximates it; ≥ and ≤ were set here for values at or beyond the usual limits of such assays. Particulars: source organism: Salmonella enterica subsp. enterica serovar Typhimurium.
In assay [14] the target is HLA-A*24:03. Described as above. Particulars: source organism: Salmonella enterica subsp. enterica serovar Typhimurium.
Setting [15] is: source organism: Rickettsia sibirica 246.
The mark [16] stands for this setting: source organism: Escherichia coli B171.
The mark [17] stands for this setting: source organism: Escherichia coli O157:H7.
[18] abbreviates: source organism: Giardia lamblia ATCC 50803.
Setting [19] is: source organism: Francisella tularensis subsp. tularensis FSC198.
[20] abbreviates: source organism: Salmonella enterica subsp. enterica serovar Typhimurium.

Bounds are passed on as bounds.

The term Kd denotes the concentration at which binding is half-saturated. A higher Kd goes with weaker binding. For the sequence AMYDPQTYY, the Kd with HLA-B*39:01 (setting [15]) is not below 20 µM; with HLA-B*27:03 (setting [15]) it was not below 20 µM; with HLA-A*02:16 (setting [15]), not below 20 µM; with HLA-A*68:02 (setting [15]) it was not below 20 µM; with HLA-B*51:01 (setting [15]) it was not below 20 µM; with HLA-A*29:02 (setting [15]), 0.0002 µM. Also, the Kd is not below 20 µM with HLA-A*02:19 (setting [15]); 0.0142 µM with HLA-A*03:01 [1] (setting [15]); not below 20 µM in the assay with HLA-B*57:01 (setting [15]); not below 20 µM with HLA-A*02:01 [2] (setting [15]); not below 20 µM in the assay with HLA-A*69:01 [3] (setting [15]); not below 20 µM in the assay with HLA-A*02:12 (setting [15]). Also, the Kd with HLA-A*24:03 [4], with HLA-B*18:01 (setting [15]) and in the assay with HLA-A*26:01 [5] (setting [15]) was not below 20 µM in each case.
On to KAIIDTAQF, for which the Kd with HLA-B*39:01 (setting [16]), in the assay with HLA-B*27:03 (setting [16]), with HLA-A*02:16 (setting [16]), with HLA-A*68:02 (setting [16]), with HLA-B*51:01 (setting [16]) and in the assay with HLA-A*29:02 (setting [16]) was not below 20 µM in each case. Besides, the Kd was not below 20 µM with HLA-A*02:19 (setting [16]); not below 20 µM in the assay with HLA-A*03:01 [1] (setting [16]); 0.209 µM with HLA-B*57:01 (setting [16]); not below 20 µM in the assay with HLA-A*02:03 (setting [16]); not below 20 µM in the assay with HLA-A*02:01 [2] (setting [16]); not below 20 µM with HLA-A*69:01 [3] (setting [16]). For the same sequence, the Kd with HLA-A*02:12 (setting [16]), in the assay with HLA-B*18:01 (setting [16]) and in the assay with HLA-A*26:01 [5] (setting [16]) was not below 20 µM throughout.
For the sequence LQLTAVFAY, the Kd with HLA-B*44:02 was not below 20 µM; with HLA-B*08:01 it was not below 20 µM; in the assay with HLA-B*46:01 [6], not below 20 µM; in the assay with HLA-B*15:02 it was 1.01 µM; with HLA-A*11:01 (setting [17]), 1.98 µM; with HLA-B*15:01 [7] (setting [17]) it was 0.0796 µM. In addition, the Kd was not below 20 µM with HLA-B*40:01; not below 20 µM in the assay with HLA-A*03:01 [8] (setting [17]); not below 20 µM with HLA-A*02:01 [9] (setting [17]); not below 20 µM with HLA-B*07:02 (setting [17]); 0.0102 µM with HLA-B*35:01; not below 20 µM with HLA-A*69:01 [10]. The Kd was not below 20 µM with HLA-A*01:01, 0.0907 µM in the assay with HLA-B*27:05, not below 20 µM with HLA-B*58:01 and not below 20 µM with HLA-A*26:01 [11].
MLMFITSSH: the dissociation constant (Kd) was 0.273 µM with HLA-B*46:01 [12] (setting [18]), 0.144 µM in the assay with HLA-A*11:01 (setting [18]), not below 20 µM in the assay with HLA-A*30:01 (setting [18]) and 0.167 µM with HLA-A*03:01 [8] (setting [18]).
As to RMFEKSTHH, the Kd in the assay with HLA-B*46:01 [6] was not below 20 µM; with HLA-B*15:02 it was 16 µM; with HLA-B*15:01 [7] (setting [17]) it was 0.0751 µM.
Consider RSFPEWDYI, for which the Kd with HLA-B*39:01 (setting [19]), in the assay with HLA-B*27:03 (setting [19]), with HLA-B*46:01 [12] (setting [19]), in the assay with HLA-B*15:01 [13], with HLA-B*51:01 (setting [19]) and with HLA-A*29:02 (setting [19]) was not below 20 µM in each case. For the same sequence, the Kd was not below 20 µM in the assay with HLA-A*02:19 (setting [19]); not below 20 µM with HLA-A*03:01 [1] (setting [19]); 0.0979 µM in the assay with HLA-B*57:01 (setting [19]); not below 20 µM with HLA-A*02:03 (setting [19]); not below 20 µM in the assay with HLA-A*02:12 (setting [19]); not below 20 µM with HLA-B*18:01 (setting [19]). This sequence also gave a Kd with HLA-A*26:01 [5] (setting [19]) not below 20 µM.
With RVNKGTGVK, the Kd was not below 20 µM with HLA-B*44:02; not below 20 µM with HLA-B*08:01; 0.0606 µM in the assay with HLA-A*11:01 (setting [20]); 4.45 µM in the assay with HLA-B*15:01 [7] (setting [20]); 0.00181 µM with HLA-A*30:01 (setting [20]); 0.103 µM with HLA-A*31:01. Moreover, the Kd with HLA-B*40:01 is not below 20 µM; in the assay with HLA-A*03:01 [8] (setting [20]), 0.359 µM; with HLA-A*02:01 [9] (setting [20]), 1.34 µM; with HLA-B*07:02 (setting [20]) it was 12.6 µM; with HLA-A*69:01 [10] it was not below 20 µM; with HLA-A*01:01, not below 20 µM. Also, the Kd with HLA-B*27:05 is not below 20 µM; in the assay with HLA-A*24:03 [14], 0.437 µM; with HLA-B*58:01, not below 20 µM; in the assay with HLA-A*26:01 [11], not below 20 µM.
The sequence TNPAITSRV gave a Kd with HLA-A*68:02 (source organism: Vibrio cholerae 2740-80) of 0.0217 µM.
